From patent US20160106830A1

B1: NP113 (peptide)
peptide: VGPLTVNEKRRLKLIMPARFYPNVTKYLPLDKGIK
modifications: not checked
B2: NP151 (peptide)
peptide: PEHVVNHYFQTRHYLHTLWKAGILYKRETTRSASF
modifications: not checked

Tests used:
[1] = biological target: HLA-DR4 (α1*01:01; β1*04:01) (human); assay: ProImmune REVEAL class II MHC-peptide binding assay
[2] = biological target: HLA-DR7 (α1*01:01; β1*07:01) (human); assay: as above

| Binder | binding score (% of positive control peptide signal) [1] | binding score (% of positive control peptide signal) [2] |
| --- | --- | --- |
| B1 | 33.5% | 99.2% |
| B2 | 74.4% | 19.4% |
